Patent publication US20090280138A1 (OXFORD BIOMEDICA UK, published 2009)

B1: 5T4 9 mer peptide 25 ASAVSAQPP (peptide)
peptide: ASAVSAQPP
notes: also called Peptide No 25
B2: 5T4 9 mer peptide 1 MPGGCSRGP (peptide)
peptide: MPGGCSRGP
notes: also called Peptide No 1
B3: 5T4 9 mer peptide 27 SAQPPLPDQ (peptide)
peptide: SAQPPLPDQ
notes: also called Peptide No 27
B4: 5T4 9 mer peptide 23 APFLASAVS (peptide)
peptide: APFLASAVS
notes: also called Peptide No 23
B5: 5T4 9 mer peptide 8 RLRLARLAL (peptide)
peptide: RLRLARLAL
notes: also called Peptide No 8
B6: 5T4 9-mer peptide 202 (peptide)
peptide: YEINADPRL
B7: 5T4 9-mer peptide 190 (peptide)
peptide: KGIKKWMHN
B8: 5T4 9-mer peptide 185 (peptide)
peptide: IFLLVLYLN
B9: 5T4 9-mer peptide 172 (peptide)
peptide: DCDPILPPS
B10: 5T4 9-mer peptide 204 (peptide)
peptide: ADPRLTNLS
B11: 5T4 9-mer peptide 196 (peptide)
peptide: ACRDHMEGY
B12: 5T4 9-mer peptide 191 (peptide)
peptide: IKKWMHNIR
B13: 5T4 9-mer peptide 177 (peptide)
peptide: QTSYVFLGI
B14: 5T4 9-mer peptide 192 (peptide)
peptide: KWMHNIRDA
B15: 5T4 9-mer peptide 197 (peptide)
peptide: RDHMEGYHY
B16: 5T4 9-mer peptide 194 (peptide)
peptide: NIRDACRDH
B17: 5T4 9-mer peptide 206 (peptide)
peptide: LTNLSSNSD
B18: 5T4 9-mer peptide 184 (peptide)
peptide: GAIFLLVLY
B19: 5T4 9-mer peptide 193 (peptide)
peptide: MHNIRDACR
B20: 5T4 9-mer peptide 189 (peptide)
peptide: NRKGIKKWM
B21: 5T4 9-mer peptide 178 (peptide)
peptide: SYVFLGIVL
B22: 5T4 9-mer peptide 203 (peptide)
peptide: INADPRLTN
B23: 5T4 9-mer peptide 188 (peptide)
peptide: YLNRKGIKK
B24: 5T4 9-mer peptide 175 (peptide)
peptide: PPSLQTSYV
B25: 5T4 9-mer peptide 195 (peptide)
peptide: RDACRDHME
B26: 5T4 9-mer peptide 201 (peptide)
peptide: YRYEINADP
B27: 5T4 9-mer peptide 199 (peptide)
peptide: EGYHYRYEI
B28: 5T4 9-mer peptide 200 (peptide)
peptide: YHYRYEINA
B29: 5T4 9-mer peptide 180 (peptide)
peptide: LGIVLALIG
B30: 5T4 9-mer peptide 205 (peptide)
peptide: PRLTNLSSN
B31: 5T4 9-mer peptide 173 (peptide)
peptide: DPILPPSLQ

Each binder was assayed against T1, MHC class I allele A*0201 (bound via biotin to streptavidin-coated plate) (assay: iTopia peptide binding assay).
T1 construct: iTopia MHC class I monomer on the plate; placeholder peptide and b2M removed, then reconstituted with test peptide and fresh b2M; also called A2; HLA A2
Description: (§1) The 9 mers were tested for Peptide Binding, Off Rate and Affinity using iTopia Epitope Discovery System in accordance with the manufacturer's instructions. Briefly, 96 well microtitre plates coated with MHC molecules representing different MHC alleles are used to identify candidate peptides. […] Determinations are performed in duplicate using an ELISA plate reader and included allele specific positive controls.
(§2) i) Peptide Binding—This assay measures the ability of individual peptides to bind to the MHC molecules under standardized optimal binding conditions. The assay is performed for all the test peptides across the selected MHC alleles. The test peptides identified as “binders” are characterized further in terms of affinity and dissociation experiments.

Row | Binder | % of positive control peptide binding
1 | B1 | 5%
2 | B2 | 9%
3 | B3 | 13%
4 | B4 | 15%

These binders were tested against T2, MHC class I allele A*0301 (bound via biotin to streptavidin-coated plate) (assay: iTopia peptide binding assay).
T2 construct: iTopia MHC class I monomer on the plate; placeholder peptide and b2M removed, then reconstituted with test peptide and fresh b2M; also called A3; HLA A3
Description: as §1, §2

Row | Binder | % of positive control peptide binding
5 | B1 | 0%
6 | B2 | 0%
7 | B3 | 0%
8 | B5 | 43%
9 | B4 | 0%

These binders were tested against T3, MHC class I allele B*0702 (bound via biotin to streptavidin-coated plate) (assay: iTopia peptide binding assay).
T3 construct: iTopia MHC class I monomer on the plate; placeholder peptide and b2M removed, then reconstituted with test peptide and fresh b2M; also called B7; HLA B7
Description: as §1, §2

Row | Binder | % of positive control peptide binding
10 | B1 | 0%
11 | B2 | 3%
12 | B3 | 3%
13 | B5 | 46%
14 | B4 | 37%

Each binder was assayed against T4, MHC class I allele A*0101 (bound via biotin to streptavidin-coated plate) (assay: iTopia peptide binding assay).
T4 construct: iTopia MHC class I monomer on the plate; placeholder peptide and b2M removed, then reconstituted with test peptide and fresh b2M; also called A1; HLA A1
Description: as §1, §2

Row | Binder | % of positive control peptide binding
15 | B1 | 2%
16 | B2 | 0%
17 | B3 | 2%
18 | B5 | 3%
19 | B4 | 1%

The binders below were run against T5, MHC class I allele A*0301 monomer (human, biotinylated, bound to streptavidin-coated plate) (assay: iTopia, multiparametric iScore).
T5 construct: also called A3; HLA-A3
Description: as §1
(§3) Finally, multiparametric analysis is performed on the results from these assays and an iScore is generated. The iScore represents a measure of the overall quality of peptide-MHC binding, enabling candidate peptides to be ranked in order of binding quality and allowing rational prioritisation of peptides for functional cellular follow-up studies.

Row | Binder | iScore
20 | B6 | 0
21 | B7 | 0
22 | B8 | 0
23 | B9 | 0
24 | B10 | 0
25 | B11 | 0
26 | B12 | 0
27 | B13 | 0
28 | B14 | 0
29 | B15 | 0
30 | B16 | 0
31 | B17 | 0
32 | B18 | 0
33 | B19 | 0
34 | B20 | 0
35 | B21 | 0
36 | B22 | 0
37 | B23 | 0.065
38 | B24 | 0
39 | B25 | 0
40 | B26 | 0
41 | B27 | 0
42 | B28 | 0
43 | B29 | 0
44 | B30 | 0
45 | B31 | 0

Each binder was assayed against T6, MHC class I allele A*0201 monomer (human, biotinylated, bound to streptavidin-coated plate) (assay: iTopia, multiparametric iScore).
T6 construct: also called A2; HLA-A2
Description: as §1, §3

Row | Binder | iScore
46 | B6 | 0.077
47 | B7 | 0
48 | B8 | 0
49 | B9 | 0
50 | B10 | 0
51 | B11 | 0
52 | B12 | 0.181
53 | B13 | 0.127
54 | B14 | 0.45
55 | B15 | 0
56 | B16 | 0
57 | B17 | 0.027
58 | B18 | 0
59 | B19 | 0.093
60 | B20 | 0.138
61 | B21 | 0.118
62 | B22 | 0
63 | B23 | 0.118
64 | B24 | 0.145
65 | B25 | 0.08
66 | B26 | 0
67 | B27 | 0
68 | B28 | 0
69 | B29 | 0
70 | B30 | 0
71 | B31 | 0

What follows are binders tested against T7, MHC class I allele A*0101 monomer (human, biotinylated, bound to streptavidin-coated plate) (assay: iTopia, multiparametric iScore).
T7 construct: placeholder peptide and b2M removed, then reconstituted with test peptide and fresh b2M; also called A1; HLA-A1
Description: as §1, §3

Row | Binder | iScore
72 | B6 | 0
73 | B7 | 0
74 | B8 | 0
75 | B9 | 0
76 | B10 | 0
77 | B11 | 0
78 | B12 | 0
79 | B13 | 0.027
80 | B14 | 0
81 | B15 | 0
82 | B16 | 0
83 | B17 | 0
84 | B18 | 0
85 | B19 | 0
86 | B20 | 0
87 | B21 | 0
88 | B22 | 0
89 | B23 | 0
90 | B24 | 0
91 | B25 | 0
92 | B26 | 0
93 | B27 | 0
94 | B28 | 0
95 | B29 | 0
96 | B30 | 0
97 | B31 | 0

What follows are binders tested against T8, MHC class I allele B*0702 monomer (human, biotinylated, bound to streptavidin-coated plate) (assay: iTopia, multiparametric iScore).
T8 construct: also called B7; HLA-B7
Description: as §1, §3

Row | Binder | iScore
98 | B6 | 0
99 | B7 | 0
100 | B8 | 0
101 | B9 | 0
102 | B10 | 0.094
103 | B11 | 0
104 | B12 | 0
105 | B13 | 0
106 | B14 | 0
107 | B15 | 0
108 | B16 | 0
109 | B17 | 0
110 | B18 | 0
111 | B19 | 0
112 | B20 | 0
113 | B21 | 0.045
114 | B22 | 0
115 | B23 | 0.089
116 | B24 | 0
117 | B25 | 0
118 | B26 | 0
119 | B27 | 0
120 | B28 | 0
121 | B29 | 0
122 | B30 | 0
123 | B31 | 0
